Reference: publication PMC3032569 (The Biochemical journal, 2009)
Where no end group is shown, it is not given here.

Molecular target: T1, E. coli TonB C-terminal domain (TonB CTD, residues 103-239) (E. coli, UniProt P02929 103-239)
T1 sequence (looked up): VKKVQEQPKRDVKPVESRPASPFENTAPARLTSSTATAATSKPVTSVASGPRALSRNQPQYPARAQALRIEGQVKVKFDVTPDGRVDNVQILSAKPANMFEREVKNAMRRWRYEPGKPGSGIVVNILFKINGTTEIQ
Assay: NMR titration

Ac-EDTITVTAAP [FhuA TonB box peptide]
binding result: binds
